The values that follow are results of earlier work, collected in PMC11446229.

Where two headings read alike, the source gives them in different places.

Broadly, the Kd is the free concentration of one partner at which half of the binding sites on the other are occupied at equilibrium, for simple one-to-one binding.

In data set [1] the target is IscS (Escherichia coli) (UniProt P0A6B7).
In a further data set the target is SufS (Escherichia coli) (UniProt P77444). Put plainly: surface plasmon resonance. (In general: In SPR one partner is held on a chip, and binding of the other changes the refractive index at the surface.)
Sequence of SufS (Escherichia coli) (P77444 whole entry): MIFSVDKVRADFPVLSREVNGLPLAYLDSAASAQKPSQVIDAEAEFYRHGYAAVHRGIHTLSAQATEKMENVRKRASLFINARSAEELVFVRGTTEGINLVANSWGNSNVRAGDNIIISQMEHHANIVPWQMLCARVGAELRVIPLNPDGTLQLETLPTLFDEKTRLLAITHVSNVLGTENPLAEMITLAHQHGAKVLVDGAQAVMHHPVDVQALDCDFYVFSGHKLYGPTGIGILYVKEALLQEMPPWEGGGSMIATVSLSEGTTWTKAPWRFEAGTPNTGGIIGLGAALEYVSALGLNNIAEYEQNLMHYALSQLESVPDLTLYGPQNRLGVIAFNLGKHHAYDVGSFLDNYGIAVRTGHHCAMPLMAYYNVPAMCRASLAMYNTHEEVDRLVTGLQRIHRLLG
For a further data set, the target named is SufS (Bacillus subtilis) (UniProt O32164).
Sequence of SufS (Bacillus subtilis) (O32164 whole entry): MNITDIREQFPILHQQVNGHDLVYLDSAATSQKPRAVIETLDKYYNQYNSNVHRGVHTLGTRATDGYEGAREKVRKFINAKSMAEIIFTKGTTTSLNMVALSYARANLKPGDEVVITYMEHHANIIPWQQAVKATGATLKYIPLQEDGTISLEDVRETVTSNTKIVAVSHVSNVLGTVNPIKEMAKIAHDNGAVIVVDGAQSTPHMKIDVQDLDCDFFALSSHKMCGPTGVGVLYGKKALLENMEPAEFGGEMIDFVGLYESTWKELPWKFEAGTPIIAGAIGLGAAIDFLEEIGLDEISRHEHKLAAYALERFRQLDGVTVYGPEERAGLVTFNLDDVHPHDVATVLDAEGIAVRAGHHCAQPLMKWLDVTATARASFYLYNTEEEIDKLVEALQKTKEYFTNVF
Data set [2] concerns the target IscS (Escherichia coli) (UniProt P0A6B7). This is another data set of the same source.

Sequence of IscS (Escherichia coli) (P0A6B7 whole entry): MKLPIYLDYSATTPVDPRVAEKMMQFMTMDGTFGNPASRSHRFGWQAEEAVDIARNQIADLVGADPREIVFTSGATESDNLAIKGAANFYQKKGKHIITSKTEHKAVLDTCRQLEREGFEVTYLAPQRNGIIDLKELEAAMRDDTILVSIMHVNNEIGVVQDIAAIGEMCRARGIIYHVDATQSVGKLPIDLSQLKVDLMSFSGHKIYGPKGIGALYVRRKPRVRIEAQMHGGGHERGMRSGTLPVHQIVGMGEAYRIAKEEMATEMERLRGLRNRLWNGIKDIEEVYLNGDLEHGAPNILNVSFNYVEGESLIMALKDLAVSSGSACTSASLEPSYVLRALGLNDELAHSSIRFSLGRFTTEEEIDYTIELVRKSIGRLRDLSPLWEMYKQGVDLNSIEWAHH
Sequence of SufU (O32163 whole entry): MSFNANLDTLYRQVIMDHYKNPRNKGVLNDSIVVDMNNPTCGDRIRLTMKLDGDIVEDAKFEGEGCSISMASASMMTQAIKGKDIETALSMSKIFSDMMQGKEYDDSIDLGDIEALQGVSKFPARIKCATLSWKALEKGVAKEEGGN
Sequence of TusA (P0A890 whole entry): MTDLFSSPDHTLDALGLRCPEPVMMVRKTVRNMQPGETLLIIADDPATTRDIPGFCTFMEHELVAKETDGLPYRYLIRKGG
Sequence of SufE (P76194 whole entry): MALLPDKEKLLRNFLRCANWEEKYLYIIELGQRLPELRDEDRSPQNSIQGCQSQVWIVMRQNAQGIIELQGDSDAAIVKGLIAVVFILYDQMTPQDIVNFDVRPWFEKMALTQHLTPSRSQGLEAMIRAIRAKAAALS
Sequence of CyaY (P27838 whole entry): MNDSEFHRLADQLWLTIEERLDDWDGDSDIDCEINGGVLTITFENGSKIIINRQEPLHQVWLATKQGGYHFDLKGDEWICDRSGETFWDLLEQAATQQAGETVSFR

CyaY (from UniProt P27838): in the data set with IscS (Escherichia coli) [1], the dissociation constant (Kd) was 23 µM.

Take SufE (from UniProt P76194): the Kd in the data set with SufS (Escherichia coli) is 0.36 µM.

With SufU (from UniProt O32163), the equilibrium dissociation constant (Kd) with SufS (Bacillus subtilis) is 3 µM.

Consider TusA (from UniProt P0A890), for which the Kd with IscS (Escherichia coli) [2] was 8 µM.
